First the molecules themselves.
B1: KAT8 regulatory NSL complex subunit 2, residues 28 to 91; numbered along this chain, Q9H9L4 (parent)
chain: CAFTHRPCSHPRLEGQEFCIKHILEDKNAPFKQCSYISTKNGKRCPNAAPKPEKKDGVSFCAEH

± gives the uncertainty stated by the source.

The variants in the data set derive from B1. The data set can be described thus: abundance fitness (aPCA) (normalised: wild type 0, dead -1); higher = more abundant; growth selection in yeast, the domain comes from the species named. The settings on record: Homo sapiens.
Turning to CAFTHRPCSHPRLEGQEFCIKHILEDKNAPFKQCSYISTKNGKRCPNAAPKPEKKDGESFCAEH, the abundance fitness was -0.057 ± 0.092.

On to CAFTHRPCSHPRLEGQEFCIKHILEDKNAPFKQCSYISTKNGKRCPNAAPKPEKKDGCSFCAEH, for which the abundance fitness was 0.012 ± 0.064.

On to CAFTHRPCSHPRLEGQEFCIKHILEDKNAPFKQCSYISTKNGKRCPNAAPKPEKKDGISFCAEH, for which the abundance fitness is -0.048 ± 0.074.

As for CAFTHRPCSHPRLEGQEFCIKHILEDKNAPFKQCSYISTKNGKRCPNAAPKPEKKDGFSFCAEH, the abundance fitness is -0.063 ± 0.08.

Consider CAFTHRPCSHPRLEGQEFCIKHILEDKNAPFKQCSYISTKNGKRCPNAAPKPEKKDGRSFCAEH, for which the abundance fitness was -0.082 ± 0.096.

For the variant CAFTHRPCSHPRLEGQEFCIKHILEDKNAPFKQCSYISTKNGKRCPNAAPKPEKKDGLSFCAEH, the abundance fitness was -0.046 ± 0.062.

As to CAFTHRPCSHPRLEGQEFCIKHILEDKNAPFKQCSYISTKNGKRCPNAAPKPEKKDGDSFCAEH, the abundance fitness came to 0.009 ± 0.093.

Consider CAFTHRPCSHPRLEGQEFCIKHILEDKNAPFKQCSYISTKNGKRCPNAAPKPEKKDGWSFCAEH, for which the abundance fitness was -0.121 ± 0.11.

Turning to CAFTHRPCSHPRLEGQEFCIKHILEDKNAPFKQCSYISTKNGKRCPNAAPKPEKKDGSSFCAEH, the abundance fitness was -0.088 ± 0.072.

On to CAFTHRPCSHPRLEGQEFCIKHILEDKNAPFKQCSYISTKNGKRCPNAAPKPEKKDGKSFCAEH, for which the abundance fitness was -0.037 ± 0.14.

On to CAFTHRPCSHPRLEGQEFCIKHILEDKNAPFKQCSYISTKNGKRCPNAAPKPEKKDGMSFCAEH, for which the abundance fitness was -0.018 ± 0.11.

Turning to CAFTHRPCSHPRLEGQEFCIKHILEDKNAPFKQCSYISTKNGKRCPNAAPKPEKKDGGSFCAEH, the abundance fitness was -0.138 ± 0.1.

On to CAFTHRPCSHPRLEGQEFCIKHILEDKNAPFKQCSYISTKNGKRCPNAAPKPEKKDGTSFCAEH, for which the abundance fitness is -0.1 ± 0.1.

Take CAFTHRPCSHPRLEGQEFCIKHILEDKNAPFKQCSYISTKNGKRCPNAAPKPEKKDGPSFCAEH: the abundance fitness was -0.098 ± 0.094.

Regarding CAFTHRPCSHPRLEGQEFCIKHILEDKNAPFKQCSYISTKNGKRCPNAAPKPEKKDGNSFCAEH, the abundance fitness is -0.178 ± 0.091.

Consider CAFTHRPCSHPRLEGQEFCIKHILEDKNAPFKQCSYISTKNGKRCPNAAPKPEKKDGASFCAEH, for which the abundance fitness is -0.018 ± 0.094.

For CAFTHRPCSHPRLEGQEFCIKHILEDKNAPFKQCSYISTKNGKRCPNAAPKPEKKDGQSFCAEH, the abundance fitness is 0.019 ± 0.12.

Regarding CAFTHRPCSHPRLEGQEFCIKHILEDKNAPFKQCSYISTKNGKRCPNAAPKPEKKDGYSFCAEH, the abundance fitness was -0.046 ± 0.075.

Consider CAFTHRPCSHPRLEGQEFCIKHILEDKNAPFKQCSYISTKNGKRCPNAAPKPEKKDSVSFCAEH, for which the abundance fitness was -0.372 ± 0.28.

Regarding CAFTHRPCSHPRLEGQEFCIKHILEDKNAPFKQCSYISTKNGKRCPNAAPKPEKKDDVSFCAEH, the abundance fitness is -0.138 ± 0.21.

Regarding CAFTHRPCSHPRLEGQEFCIKHILEDKNAPFKQCSYISTKNGKRCPNAAPKPEKKEGVSFCAEH, the abundance fitness is -0.113 ± 0.21.

CAFTHRPCSHPRLEGQEFCIKHILEDKNAPFKQCSYISTKNGKRCPNAAPKPEKKNGVSFCAEH: the abundance fitness was -0.073 ± 0.077.

On to CAFTHRPCSHPRLEGQEFCIKHILEDKNAPFKQCSYISTKNGKRCPNAAPKPEKKHGVSFCAEH, for which the abundance fitness was -0.055 ± 0.086.

Turning to CAFTHRPCSHPRLEGQEFCIKHILEDKNAPFKQCSYISTKNGKRCPNAAPKPEKKSGVSFCAEH, the abundance fitness was -0.067 ± 0.063.

As to CAFTHRPCSHPRLEGQEFCIKHILEDKNAPFKQCSYISTKNGKRCPNAAPKPEKKTGVSFCAEH, the abundance fitness was -0.057 ± 0.059.

For CAFTHRPCSHPRLEGQEFCIKHILEDKNAPFKQCSYISTKNGKRCPNAAPKPEKKIGVSFCAEH, the abundance fitness is -0.2 ± 0.1.

Regarding CAFTHRPCSHPRLEGQEFCIKHILEDKNAPFKQCSYISTKNGKRCPNAAPKPEKKPGVSFCAEH, the abundance fitness was -0.096 ± 0.074.

On to CAFTHRPCSHPRLEGQEFCIKHILEDKNAPFKQCSYISTKNGKRCPNAAPKPEKKWGVSFCAEH, for which the abundance fitness was -0.305 ± 0.25.

Turning to CAFTHRPCSHPRLEGQEFCIKHILEDKNAPFKQCSYISTKNGKRCPNAAPKPEKKYGVSFCAEH, the abundance fitness is -0.148 ± 0.068.

CAFTHRPCSHPRLEGQEFCIKHILEDKNAPFKQCSYISTKNGKRCPNAAPKPEKKFGVSFCAEH: the abundance fitness was -0.137 ± 0.14.

CAFTHRPCSHPRLEGQEFCIKHILEDKNAPFKQCSYISTKNGKRCPNAAPKPEKKCGVSFCAEH: the abundance fitness is -0.067 ± 0.19.

For the variant CAFTHRPCSHPRLEGQEFCIKHILEDKNAPFKQCSYISTKNGKRCPNAAPKPEKKAGVSFCAEH, the abundance fitness was -0.111 ± 0.085.

With CAFTHRPCSHPRLEGQEFCIKHILEDKNAPFKQCSYISTKNGKRCPNAAPKPEKKRGVSFCAEH, the abundance fitness is -0.063 ± 0.086.

CAFTHRPCSHPRLEGQEFCIKHILEDKNAPFKQCSYISTKNGKRCPNAAPKPEKKQGVSFCAEH: the abundance fitness is -0.073 ± 0.098.

Consider CAFTHRPCSHPRLEGQEFCIKHILEDKNAPFKQCSYISTKNGKRCPNAAPKPEKKKGVSFCAEH, for which the abundance fitness is 0.011 ± 0.32.

For the variant CAFTHRPCSHPRLEGQEFCIKHILEDKNAPFKQCSYISTKNGKRCPNAAPKPEKKDGVFFCAEH, the abundance fitness is -0.062 ± 0.083.

Regarding CAFTHRPCSHPRLEGQEFCIKHILEDKNAPFKQCSYISTKNGKRCPNAAPKPEKKDGVHFCAEH, the abundance fitness is -0.157 ± 0.15.

Regarding CAFTHRPCSHPRLEGQEFCIKHILEDKNAPFKQCSYISTKNGKRCPNAAPKPEKKDGVEFCAEH, the abundance fitness is -0.243 ± 0.14.

For the variant CAFTHRPCSHPRLEGQEFCIKHILEDKNAPFKQCSYISTKNGKRCPNAAPKPEKKDGVCFCAEH, the abundance fitness was -0.089 ± 0.14.

With CAFTHRPCSHPRLEGQEFCIKHILEDKNAPFKQCSYISTKNGKRCPNAAPKPEKKDGVGFCAEH, the abundance fitness was -0.024 ± 0.092.

On to CAFTHRPCSHPRLEGQEFCIKHILEDKNAPFKQCSYISTKNGKRCPNAAPKPEKKDGVIFCAEH, for which the abundance fitness is -0.006 ± 0.12.

As for CAFTHRPCSHPRLEGQEFCIKHILEDKNAPFKQCSYISTKNGKRCPNAAPKPEKKDGVAFCAEH, the abundance fitness is -0.056 ± 0.11.
